Experimental data reported in the Immune Epitope Database (IEDB).

Legend:
[1] = biological target: HLA-A*03:01; assay: IEDB peptide-MHC binding, purified MHC/direct/fluorescence; filed as Kd, often an IC50 or EC50 that approximates it; ≥ and ≤ were set here for values at or beyond the usual limits of such assays
[2] = biological target: HLA-A*01:01; assay: IEDB peptide-MHC binding, purified MHC/competitive/radioactivity; filed as Kd, often an IC50 or EC50 that approximates it; ≥ and ≤ were set here for values at or beyond the usual limits of such assays
[3] = biological target: HLA-A*26:01; assay: as above
[4] = biological target: HLA-A*02:01; assay: IEDB peptide-MHC binding, purified MHC/competitive/fluorescence; ≥ and ≤ were set here for values at or beyond the usual limits of such assays
[5] = biological target: HLA-A*01:01; assay: IEDB peptide-MHC binding, purified MHC/direct/fluorescence; filed as Kd, often an IC50 or EC50 that approximates it; ≥ and ≤ were set here for values at or beyond the usual limits of such assays
[6] = biological target: HLA-A*24:02; assay: IEDB peptide-MHC binding, purified MHC/competitive/fluorescence; ≥ and ≤ were set here for values at or beyond the usual limits of such assays
[7] = biological target: HLA-A*30:01; assay: IEDB peptide-MHC binding, purified MHC/competitive/radioactivity; filed as Kd, often an IC50 or EC50 that approximates it; ≥ and ≤ were set here for values at or beyond the usual limits of such assays
[8] = biological target: HLA-B*35:01; assay: as above
[9] = biological target: HLA-A*02:01; assay: IEDB peptide-MHC binding, purified MHC/direct/fluorescence; filed as Kd, often an IC50 or EC50 that approximates it; ≥ and ≤ were set here for values at or beyond the usual limits of such assays
[10] = biological target: HLA-A*69:01; assay: as above
[11] = biological target: HLA-A*32:01; assay: IEDB peptide-MHC binding, purified MHC/competitive/radioactivity; filed as Kd, often an IC50 or EC50 that approximates it; ≥ and ≤ were set here for values at or beyond the usual limits of such assays
[12] = biological target: HLA-B*07:02; assay: IEDB peptide-MHC binding, purified MHC/direct/fluorescence; filed as Kd, often an IC50 or EC50 that approximates it; ≥ and ≤ were set here for values at or beyond the usual limits of such assays
[13] = biological target: HLA-B*27:05; assay: as above; details: source organism: Mammarenavirus juninense
[14] = biological target: HLA-A*31:01; assay: as above
[15] = biological target: HLA-A*11:01; assay: as above
[16] = biological target: HLA-B*15:01; assay: as above
[17] = biological target: HLA-B*58:01; assay: as above; details: source organism: Homo sapiens
[18] = biological target: HLA-A*02:02; assay: IEDB peptide-MHC binding, purified MHC/competitive/radioactivity; filed as Kd, often an IC50 or EC50 that approximates it; ≥ and ≤ were set here for values at or beyond the usual limits of such assays
[19] = biological target: HLA-A*02:03; assay: as above
[20] = biological target: HLA-A*02:06; assay: as above
[21] = biological target: HLA-A*68:01; assay: as above
[22] = biological target: HLA-A*03:01; assay: as above
[23] = biological target: HLA-A*11:01; assay: as above
[24] = biological target: HLA-A*31:01; assay: as above
[25] = biological target: HLA-A*33:01; assay: as above; details: source organism: Mammarenavirus machupoense
[26] = source organism: Dengue virus 2 Jamaica/1409/1983
[27] = source organism: Vaccinia virus Copenhagen
[28] = source organism: Sudan ebolavirus
[29] = source organism: Vaccinia virus WR
[30] = source organism: Vaccinia virus
[31] = source organism: Zaire ebolavirus
[32] = source organism: Dengue virus 4 Philippines/H241/1956
[33] = source organism: Dengue virus 1 Brazil/97-11/1997
[34] = source organism: Burkholderia mallei
[35] = source organism: Dengue virus 3 Martinique/1243/1999
[36] = source organism: Mycobacterium tuberculosis
[37] = source organism: Human herpesvirus 4 strain B95-8
[38] = source organism: Francisella tularensis subsp. tularensis FSC198
[39] = source organism: Dengue virus 4 Dominica/814669/1981
[40] = source organism: Marburg virus - Musoke, Kenya, 1980
[41] = source organism: Dengue virus 3 Singapore/8120/1995
[42] = source organism: Vibrio vulnificus
[43] = source organism: SARS coronavirus Tor2
[44] = source organism: Mammarenavirus machupoense
[45] = source organism: Orthohantavirus hantanense

RVTDMAPFK
Kd ([1]; source organism: Listeria monocytogenes): 404 nM

ATVTGGIFLF
Kd [2, 26]: 2030 nM
Kd [3, 26]: 2510 nM

STFIMLEGE
IC50 [4, 27]: ≥ 434000 nM

SSECQGEML
Kd ([5]; source organism: Homo sapiens): 4760 nM

LNDTIHLHQ
IC50 [6, 28]: 34000 nM

CLRCSKLNL
Kd [7, 29]: 482 nM

EFLRYLLFG
IC50 [6, 30]: 17800 nM

TITETAATI
IC50 [4, 28]: 44900 nM
IC50 [6, 28]: 48400 nM

LESRFTPQF
IC50 [6, 31]: 16200 nM

FTPQFLLQL
IC50 [4, 31]: 292 nM
IC50 [6, 31]: 814 nM

LTKRFSLGM
Kd [3, 26]: ≥ 31800 nM

QTGIQRTVFF
Kd [2, 32]: ≥ 70400 nM

IAVGMVTLY
Kd [8, 33]: 13.5 nM

EIQLTDYGAL
Kd [3, 33]: 5580 nM

ITVIDLEPIS
Kd [7, 32]: 105 nM

KLGLITNTI
IC50 [4, 31]: 1920 nM

DAAAPLPPV
Kd [9, 34]: ≥ 20000 nM
Kd [10, 34]: 0.8 nM

RLLLNRFTM
Kd [11, 35]: 33.2 nM

AMLAGTAVV
Kd [9, 36]: 5.9 nM

KLRCRNTEA
Kd [7, 29]: 14.2 nM

AVPVHWVPTS
Kd [7, 35]: 10500 nM

QPRAPIRPI
Kd [10, 37]: 2540 nM
Kd [12, 37]: 161 nM

KVVRVQRPTP
Kd [7, 26]: 122 nM

DGIRGFPRC
IC50 [4, 31]: ≥ 126000 nM

RRVAHSSLY
Kd [13]: 170 nM

GNPGRFWNTT
Kd [11, 26]: 9900 nM

IHHASAPLT
IC50 [4, 31]: ≥ 378000 nM

FLNEDHWFGR
Kd [11, 32]: 1560 nM

HAHWTEAKM
Kd [8, 33]: 285 nM

LTILIRTGLL
Kd [3, 26]: 8470 nM

LIEWAMEKS
IC50 [4, 30]: ≥ 408000 nM

RDKFRKSSF
IC50 [6, 28]: 35700 nM

GLDPTGVAV
Kd [9, 36]: 17.4 nM

MPPLRFLGED
Kd [8, 32]: 15200 nM

RTENFVLSI
Kd [11, 29]: 1.62 nM

WTTLLSLTF
Kd [2, 33]: 11200 nM

RTRYLPSLV
Kd [7, 27]: 0.485 nM

SFSSGWSPR
Kd [1, 38]: ≥ 20000 nM
Kd [14, 38]: 3.4 nM

LTAGLSVQQ
IC50 [4, 31]: ≥ 298000 nM

DKLSSTNQL
IC50 [6, 31]: 16200 nM

GQLKLNWFKK
Kd [11, 26]: 2070 nM

NLTSTWVMY
Kd [2, 39]: 1990 nM

LTSRETALM
Kd [2, 32]: 1800 nM

IADMGHLKY
Kd ([1]; source organism: Homo sapiens): 3030 nM
Kd ([15]; source organism: Homo sapiens): 2800 nM
Kd ([16]; source organism: Homo sapiens): 4090 nM
Kd [17]: 2000 nM

LIGKEEYVDY
Kd [2, 32]: 7910 nM

KTKIDIIFA
Kd [7, 30]: 10 nM

ALLTGSYTI
Kd [9, 40]: 0.5 nM
Kd [10, 40]: 6660 nM

EEINNQLLL
IC50 [6, 30]: 57800 nM

VLEENMDVEI
Kd [2, 33]: ≥ 46500 nM

VTTWEDVPYL
Kd [2, 41]: 10200 nM

LIGNEEFLDY
Kd [2, 35]: 1670 nM

TQMGGWFQK
Kd [1, 42]: 848 nM
Kd [15, 42]: 43.9 nM

ATARSSPEK
Kd [7, 29]: 0.584 nM

FVDGVPFVV
Kd ([5]; source organism: SARS-CoV1): 1410 nM
Kd ([9]; source organism: SARS-CoV1): 124 nM
Kd ([15]; source organism: SARS-CoV1): ≥ 23100 nM
Kd ([10]; source organism: SARS-CoV1): 23.3 nM
Kd [18, 43]: 9.62 nM
Kd [19, 43]: 85.9 nM
Kd [20, 43]: 0.908 nM

DVFFTPPEK
Kd [7, 26]: 1300 nM
Kd [21, 26]: 3.59 nM

RTAPPSLYGR
Kd [22, 44]: 16.2 nM
Kd [23, 44]: 8.92 nM
Kd [7, 44]: 759 nM
Kd [24, 44]: 1.59 nM
Kd [25]: 2390 nM
Kd [21, 44]: 10.2 nM

GRQTQSRPI
IC50 [6, 31]: ≥ 204000 nM

INVEYRFLV
IC50 [4, 29]: 1650 nM
IC50 [6, 29]: 5730 nM

NSDEQSLEY
Kd ([5]; source organism: Francisella tularensis subsp. holarctica LVS): ≤ 1 nM

EPIVGAETF
Kd ([12]; source organism: Human immunodeficiency virus 1): 5640 nM

YRFLVINRL
IC50 [6, 29]: 900 nM

GMHHLYREY
Kd ([16]; source organism: Mammarenavirus juninense): 135 nM

APTGDLPRA
Kd ([9]; source organism: Homo sapiens): ≥ 21800 nM
Kd ([10]; source organism: Homo sapiens): 6780 nM
Kd ([12]; source organism: Homo sapiens): 5520 nM

KWKRQLNSL
Kd [7, 32]: 290 nM

RTWFHGSLY
Kd ([1]; source organism: Cryptosporidium parvum): 13.1 nM

ETTKRDLGM
Kd [3, 35]: 1450 nM

LPEYGTLGLE
Kd [8, 35]: 4480 nM

KCYGVSATK
Kd ([14]; source organism: SARS-CoV1): 3520 nM

FNYLFGGFS
IC50 ([4]; source organism: Variola virus): 51600 nM

AWIPYFGPA
IC50 [4, 31]: 20000 nM
IC50 [6, 31]: ≥ 81100 nM

GPILTLWEGN
Kd [11, 39]: 504 nM

QRKKTGKPSI
Kd [7, 35]: 1150 nM

ITDYQGKTV
Kd [2, 32]: ≥ 33900 nM

IGVLLTWIGL
Kd [11, 35]: ≥ 33000 nM

KVKYEGAGA
Kd [7, 32]: 123 nM

AIMMILSTI
Kd [11, 29]: 2.45 nM

LINFLLRSI
Kd [11, 29]: 254 nM

GLVSKFMSN
IC50 [4, 29]: 13800 nM

FRKSSFFVW
IC50 [6, 28]: 2420 nM

GKIIHEWCCR
Kd [11, 33]: ≥ 51600 nM

LLYFKVFGI
Kd [11, 29]: ≥ 37400 nM

STINICLPY
Kd [11, 29]: 31.5 nM

KQWFLDLPLP
Kd [7, 33]: 9590 nM

RTSFAFQAI
Kd [11, 29]: 3.78 nM

TFKDESIFI
IC50 [6, 27]: 328 nM

INQIIHDFI
IC50 [6, 28]: 2770 nM

HILGPDCCI
IC50 [4, 31]: 66400 nM
IC50 [6, 31]: ≥ 135000 nM

AIKVLKGFK
Kd [22, 35]: 157 nM
Kd [7, 35]: 1390 nM

SSNNVSSSI
Kd [11, 27]: 155 nM

IDSMFLMTA
IC50 ([4]; source organism: Variola virus): 28700 nM

SWLITSGFR
Kd ([1]; source organism: Cowpox virus): ≥ 20000 nM
Kd ([14]; source organism: Cowpox virus): 1100 nM

LVKLHSGKDV
Kd [7, 33]: 5940 nM

ISGQSPART
IC50 [4, 31]: ≥ 137000 nM

MALIVSIFK
Kd [7, 30]: 896 nM

GSKASCVLK
Kd [7, 29]: 265 nM

KALKINWYK
Kd [22, 41]: 84.1 nM
Kd [23, 41]: 81.7 nM
Kd [7, 41]: 360 nM
Kd [24, 41]: 0.11 nM

GTNGISNGI
Kd [11, 29]: 20.1 nM

TDFHERPVI
IC50 ([6]; source organism: Variola virus): 408 nM

KTMTTVYIL
Kd [11, 29]: 13.9 nM

ALLATSIFK
Kd [22, 33]: 4.12 nM
Kd [23, 33]: 23.4 nM
Kd [7, 33]: 544 nM

IRYQATGFG
IC50 [6, 31]: 54400 nM

TSITQKGIIF
Kd [2, 33]: 7350 nM

HHRRTDNDS
IC50 [4, 31]: ≥ 72100 nM

ELSFTVVSN
IC50 [4, 31]: ≥ 220000 nM
IC50 [6, 31]: ≥ 119000 nM

MLYILGLFK
Kd [1, 45]: 102 nM
Kd [15, 45]: 18.6 nM

KVEKYLPEVI
Kd [18, 29]: 12100 nM
Kd [19, 29]: 12400 nM
Kd [20, 29]: 734 nM

GLESIEQNLT
Kd [18, 29]: 7020 nM
Kd [19, 29]: ≥ 61300 nM
Kd [20, 29]: ≥ 69800 nM

LLNETAKVI
Kd [18, 29]: 319 nM
Kd [19, 29]: 71.4 nM
Kd [20, 29]: 15400 nM

GVTGILQLP
IC50 [4, 31]: 63500 nM

LFDLDEDDE
IC50 [4, 31]: ≥ 212000 nM

MLTPINEEA
IC50 [4, 31]: 780 nM

NTLIQYRQQL
Kd [18, 29]: 6370 nM
Kd [19, 29]: 10100 nM
Kd [20, 29]: ≥ 20900 nM
